Data on four substances can be found in paper PMC6009097, “Design and biological characterization of novel cell-penetrating peptides preferentially targeting cell nuclei and subnuclear regions” (Beilstein Journal of Organic Chemistry, 2018).

Marks after values point to notes of the source that are not given here. Where no end group is shown, it is not given here.

Data set [1] can be described thus: Circular dichroism spectroscopy (secondary structure). In kind it is physicochemical. The conditions noted are these: 10 mM phosphate buffer pH 7.0 with TFE (50%), peptide 20 µM. Here is the method:
First, we performed a structural analysis by diluting all peptides to a concentration of 20 μM in phosphate buffer (pH 7.0), with or without the presence of the secondary structure inducing solvent trifluoroethanol (TFE).
Figure 1 Circular dichroism spectra of the novel peptides solved in 10 mM phosphate buffer (pH 7) (A), or phosphate buffer with the addition of TFE (50%) (B). Peptide concentration was 20 µM. (C) Helical wheel projections of the peptides N50-sC18* and NrTP-sC18*, respectively.
All peptides were analyzed in 10 mM potassium phosphate buffer (pH 7.0) with or without the addition of TFE (1:1 dilution) using a peptide concentration of 20 µM. Peptides were measured in a 0.1 cm quartz cuvette with a sensitivity of 100 mdeg in the range from 260 to 180 nm in 0.5 nm intervals. The scanning mode was continuous and a scanning speed of 50 nm/min was chosen. The results of pure buffer were subtracted from the spectra of the peptides. The ratio between the molar ellipticity at 222 nm and 207 nm was used to confirm an α-helical structure of peptides.

The test system of data set [2] is HeLa cells. The experiment in a line: Cellular uptake, confocal fluorescence microscopy. The conditions noted are these: 1 μM CF-labeled peptide, 37 °C; for cellular uptake (microscopy) at 1 μM: 30 and 120 min; for intracellular distribution at 1 μM: 30 or 120 min. In kind it is cell-based.
The subject of data set [3] is several different cell lines. The conditions noted are these: cited from earlier work. Here is the method: Within their studies, the authors used higher concentrations, longer incubation times and other cell lines, what could probably explain the different results obtained in our study. In fact, it is very likely that working with increased concentrations of the NrTP sequence could probably improve the cell-penetrating capability of this peptide. Also for the N50 sequence alone, the internalization ability in several different cell lines was already determined [[2 ...

Data set [4] deals with MCF-7 cells. Put plainly: Cellular uptake, confocal fluorescence microscopy. The conditions noted are these: MCF-7, 10 µM CF-labeled peptide, 30 min; for cellular uptake (microscopy) / intracellular distribution: 37 °C, confocal fluorescence; for cellular uptake (microscopy): trypan blue quench. Type of data set: cell-based. Here is the method: (§1) Next, we analyzed the intracellular fate of the new peptide variants using confocal fluorescence microscopy. Thus, MCF-7 and HeLa cells were incubated with 10 µM peptide solutions at 37 °C and inspected after 30 min (Figure 3).
(§2) Figure 3 Cellular uptake in HeLa and MCF-7 cells. Cells were incubated for 30 min with 10 µM of CF-labeled peptide solutions. Green: CF-labeled peptide; blue: Hoechst 33342 nuclear stain; scale bar is 10 µm.
(§3) For microscopic analyses, a confocal laser scanning system (Nikon D-Eclipse C1) with an inverted microscope (Nikon Eclipse Ti) was used. Pictures were taken with a 60× oil immersion objective (N.A. 1.4, Plan APO VC; Nikon) using the software EZ-C1 3.91 from Nikon.
(§4) Cells were seeded in 350 μL medium in an 8-well ibidi plate (HeLa 45,000, MCF-7 70,000 cells per well) and were grown to 70–80% confluency. Then, the medium was removed and the cells were treated with the peptides and substances in various concentrations for the requested time. Cells were incubated at 4 °C or 37 °C and 10 min prior to the end of incubation 0.6 μL of Hoechst stain (bisbenzimide H33342, 1 mg/mL in H2O, sterile filtered) was added to each well to stain the cell nuclei. After removing the solutions, cells were quenched with 200 μL of 150 μM trypan blue solution (in acetate buffer) for 30 s. The stain was removed and the cells were washed twice with medium. After adding 300 μL of fresh medium, pictures were taken using a fluorescence confocal microscope. Images were edited in Image J 1.43m.

Data set [5] deals with HeLa cells. The experiment in a line: Cellular uptake, confocal fluorescence microscopy. In kind it is cell-based. The conditions noted are these: 10 µM CF-labeled peptide, 30 min, 37 °C; for cellular uptake (microscopy): trypan blue quench. Here is the method:
as §1, §2, §3, §4

The subject of data set [6] is HeLa cells. The experiment in a line: Resazurin-based cell viability assay. The conditions noted are these: 24 h; for concentration up to which no significant toxicity was observed: 37 °C, serum-free medium, resazurin read-out, n = 3 in triplicate. On the procedure: (§5) In the next step, the cytotoxicity profiles of the novel peptide chimera were investigated. Therefore, we chose two different cancer cell lines, namely breast cancer MCF-7 and cervix carcinoma HeLa cells, which were exposed for 24 h to various concentrations of the peptides sC18*, N50, N50-sC18*, NrTP and NrTP-sC18* (Figure 2).
(§6) Figure 2 Cytotoxicity profiles of the peptides in MCF-7 and HeLa cells. Cells were incubated for 24 h with different concentrations of peptide solutions. Untreated cells served as negative control, cells treated with 70% ethanol as positive control. Values from the positive control were subtracted from all data, and the untreated cells were set to 100%; assays were performed with n = 3 in triplicate.
(§7) A total volume of 200 μL of cells (HeLa 40’000, MCF-7 50’000 cells per well) were seeded in 96-well plates and grown to 70–80% confluency. Afterwards, they were incubated with peptide or doxorubicin solutions (diluted in serum-free medium) in a total volume of 100 μL. In the wells that served as positive and negative controls, the medium was replaced by fresh medium without FBS. The plates were incubated for 24 h or 48 h at 37 °C. Afterwards, the positive control was treated with 100 μL of 70% EtOH for 10 min, and then all cells were washed with PBS. Cells were covered with 100 μL of a 10% resazurin solution in medium without FBS and incubated for 1–2 h at 37 °C. Afterwards, fluorescence was quantified by using a Tecan infinite M200 plate reader (excitation: 550 nm, emission: 595 nm).
To achieve comparably results, the positive control was subtracted from all data and the negative control was set to 100%, so that the results of the peptide-treated cells represent relative cell viability values in %. Experiments were done in triplicate.
Peptide solutions of 1, 5, 10,
25, 40, 55, 70, 85 and 100 µM were incubated with HeLa cells (24 h, 37 °C). Afterwards a resazurin-based cell
viability assay was performed according to the experimental part.
(1 picture or pasted object on this page, not shown here)
For orientation: Alamar Blue is a resazurin reagent that responds to reducing activity.

In data set [7] the test system is MCF-7 cells. Put plainly: Resazurin-based cell viability assay. The conditions noted are these: 24 h, 37 °C, serum-free medium, resazurin read-out, n = 3 in triplicate. On the procedure: as §5, §6
A total volume of 200 μL of cells (HeLa 40’000, MCF-7 50’000 cells per well) were seeded in 96-well plates and grown to 70–80% confluency. Afterwards, they were incubated with peptide or doxorubicin solutions (diluted in serum-free medium) in a total volume of 100 μL. In the wells that served as positive and negative controls, the medium was replaced by fresh medium without FBS. The plates were incubated for 24 h or 48 h at 37 °C. […] Afterwards, fluorescence was quantified by using a Tecan infinite M200 plate reader (excitation: 550 nm, emission: 595 nm). […]

In data set [8] the test system is MCF-7 cells. Put plainly: Cellular uptake quantified by flow cytometry. Type of data set: cell-based. The conditions noted are these: MCF-7, 10 µM peptide, 30 min, 37 °C, serum-free medium, 10,000 cells, triplicate. Here is the method:
(§8) Figure 4 Cellular uptake in MCF-7 and HeLa cells was quantified by flow cytometry. Cells were incubated with 10 µM peptide solutions for 30 min at 37 °C.
(§9) Cells were seeded in 24-well plates (HeLa 170,000, MCF-7 200,000 cells per well) and grown to 70–80% confluency. Then, cells were treated with 400 μL of peptide solutions dissolved in serum-free medium for the appropriate time at 4 °C or 37 °C. Afterwards, the cells were washed twice with PBS and detached with Trypsin-EDTA 1× in PBS without phenol red for 3–5 min followed by adding 800 μL of indicator-free medium. Cells were resuspended and 200 μL of the suspension were transferred to a 96-well plate for measuring the fluorescence in the Guava® easyCyte flow cytometer (Merck). In each sample, 10,000 cells were measured and each experiment was done in triplicate. Cells treated with medium only served as negative control and their fluorescent signal was subtracted from all other samples in each set of experiment.
For orientation: In flow cytometry, cells or beads pass a laser one at a time.

The test system of data set [9] is HeLa cells. Put plainly: Cellular uptake quantified by flow cytometry. Type of data set: cell-based. The conditions noted are these: 10 µM peptide, 30 min, 37 °C, serum-free medium, 10,000 cells, triplicate. On the procedure: as §8, §9
For data set [10], the system named is MCF-7 cells. The experiment in a line: Cytotoxicity of doxorubicin co-incubated with peptides (resazurin viability assay). In kind it is cell-based. The conditions noted are these: MCF-7, peptide 10 μM + DOX 1 μg/mL, 48 h. On the procedure:
Fluorescence microscopic images after 30 min incubation in HeLa (A) and MCF-7 (B) cells with 10 μM CF-labeled peptides N50-sC18* or NrTP-sC18* co-incubated with 10 μg/mL doxorubicin at 37 °C, respectively. Cells treated with DOX alone served as negative control; Green: CF-labeled peptide; blue: Hoechst 33342 nuclear stain; red: doxorubicin; scale bar is 10 µm. (C) Cells were incubated for 48 h with DOX (1 µg/mL), or solutions out of peptides (10 µM) and DOX (1 µg/mL), or peptide solutions (10 µM) alone. Untreated cells served as negative control, cells treated for 10 min with 70% ethanol as positive control. Experiments were conducted in triplicate with n = 2.
Herein, the drug alone (1 μg/mL) or in presence of 10 μM solutions of the peptides sC18*, N50-sC18* and NrTP-sC18*, respectively, were incubated for 48 h with MCF-7 cells.
as §7
Experiments were done in triplicate.

VQRKRQKLMP [N50, reference compound]: in data set [1], the “secondary structure (CD)” value is on record as “random coil structure”. For the same substance, the “cellular uptake (microscopy) at 1 μM” value in the data set on HeLa cells [2] is on record as “no uptake at all”. In addition, the “internalization ability / uptake” value in data set [3] is given as “very low”. Besides, the “cellular uptake (microscopy)” value with MCF-7 cells [4] and in the data set on HeLa cells [5] was “not noticeable present” in each case. The “concentration up to which no significant toxicity was observed” value with HeLa cells [6] (HeLa cells) was not above 50 µM.
In general, IC50 refers to the concentration that inhibits the measured activity by half. High values mean weaker potency in that assay, low ones greater potency in that assay. Turning to “YKQCHKKGGKKGSGGLRKRLRKFRNK-NH2 [NrTP-sC18*]”, the “intracellular distribution at 1 μM” value in the data set on HeLa cells [2] is recorded as “accumulates in endosomes”. In addition, in the data set with MCF-7 cells [7], the “concentration up to which no toxic effects were observed” value was not above 100 µM. Moreover, the “intracellular distribution at 4 °C” value with MCF-7 cells [4] was “evenly distributed throughout the whole cell, including strong accumulation in the nuclei”. The intracellular distribution result with MCF-7 cells [4] and with HeLa cells [5] was “strong accumulation within the nucleoli” each time. For the same substance, the “cellular uptake (microscopy)” value with MCF-7 cells [4] and in the data set with HeLa cells [5] was “entered the cells extremely efficiently compared to sC18* alone” in each case. In the data set on HeLa cells [6], this substance came in with an IC50 of 53.7 ± 4.79 µM. Moreover, in the data set with HeLa cells [6] (HeLa cells, 50 µM), the “effect on cell viability at 50 µM” value was “seemed to affect cell viability”. In addition, in the data set with HeLa cells [6] (HeLa cells), the “concentration up to which no significant toxicity was observed” value was not above 50 µM. The “effect on cell viability at higher concentrations” value in the data set on HeLa cells [6] (HeLa cells, concentrations above 50 µM) was “all cells were dead”. Also, the “cellular uptake (flow cytometry)” value in the data set on MCF-7 cells [8] and in the data set on HeLa cells [9] was “extremely high uptake” in each case.
Take VQRKRQKLMPGLRKRLRKFRNK [N50-sC18*]: the “secondary structure (CD)” value in data set [1] was “formed α-helices”. Moreover, in data set [1] (CD), the “R-value (ratio between the molar ellipticity at 222 nm and 207 nm)” value is given as 0.83. The “intracellular distribution at 1 μM” value with HeLa cells [2] is “diffusely distributed within the cytosol and the nuclei of HeLa cells, and after 120 min it mainly accumulated within the nuclei”. In addition, the “concentration up to which no toxic effects were observed” value in the data set on MCF-7 cells [7] is not above 100 µM. Besides, the “intracellular distribution at 4 °C” value with MCF-7 cells [4] is on record as “mainly detectable within the nuclei”. The intracellular distribution result in the data set with MCF-7 cells [4] was “distributed within the whole cell cytosol, and accumulated particularly around the nucleus”; in the data set with HeLa cells [5] it was “distributed within the whole cell cytosol, and accumulated particularly around the nucleus”. Moreover, the “cellular uptake (microscopy)” value in the data set on MCF-7 cells [4] and in the data set on HeLa cells [5] was “entered the cells extremely efficiently compared to sC18* alone” in each case. Also, the “effect of the peptide on the toxic effect / efficacy of DOX” value in the data set with MCF-7 cells [10] is “significantly improved”. Also, the “number of viable cells after co-treatment with DOX” value with MCF-7 cells [10] (triplicate with n = 2) came to 30%. Besides, the “concentration up to which no significant toxicity was observed” value with HeLa cells [6] (HeLa cells) was not above 50 µM. The “cellular uptake (flow cytometry)” value in the data set with MCF-7 cells [8] and in the data set on HeLa cells [9] was “extremely high uptake” throughout.
Consider “GLRKRLRKFRNK [sC18*, shortened version of the cell-penetrating peptide sC18, lacking its four C-terminal amino acids]”, for which the “secondary structure (CD)” value in [1] is on record as “α-helical character”. The “cellular uptake (microscopy) at 1 μM” value in the data set with HeLa cells [2] is reported as “no uptake at all”. For the same substance, the “cellular uptake (microscopy)” value in the data set on MCF-7 cells [4] and with HeLa cells [5] was “only small dots were detectable” each time. For the same substance, the “effect of the peptide on the toxic effect / efficacy of DOX” value in the data set on MCF-7 cells [10] is given as “could not enhance the efficacy of DOX”. The “concentration up to which no significant toxicity was observed” value in the data set on HeLa cells [6] (HeLa cells) was not above 50 µM.
